Results reported in the supplement of paper PMC9732359.
± gives the uncertainty stated by the source.

Assay: protein stability index of a GFP-peptide fusion (yeast GPS) (PSI 1-4); higher = more stable; sorted into four equal gates, so the index is relative within each strain
Settings: doa10∆
Method in brief: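 Sequencing reads from sorted gates were used to score each peptide. The library consisted of tiled 17-residue yeast protein peptides fused downstream of GFP on a Cherry-expressing plasmid, pooled and carried in yeast. Mid-log cultures in leucine-free medium were split into four equal gates by GFP/Cherry ratio, and each gate's plasmids were PCR-amplified and Illumina-sequenced. The protein stability index adds up, over all gates, the read frequency multiplied by the gate number.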

Row | Sequence | protein stability index
1 | RQQKLLEDQQRQQKLLL [SWI1] | 3.2 ± 0.12
2 | RQTLAPYAVLSQFYELR [YJR042W/NUP85] | 1.98 ± 0.12
3 | RRGTALGIKKEKRIQYA [RPB2] | 1.95 ± 0.08
4 | RRMGILKKILDQCKKQR [RPO31] | 1.63 ± 0.16
5 | RRSKMNPLWNAIIVAGV [PRE4] | 2.87 ± 0.097
6 | RRTYNTLEDKFLLLAVN [ISW2] | 1.34 ± 0.084
7 | RSMDAEQLGHASKRHKP [RPP1] | 2.55 ± 0.056
8 | RSNGSVASLSKRNKLLT [YJL039C/NUP192] | 1.73 ± 0.1
9 | RSYDLTRHQNTIHAKRK [RPN4] | 2.48 ± 0.061
10 | RTLWPEFIPPDPTKVTE [SSN8] | 2.49 ± 0.042
11 | RTQAGDIVSIDIEEPQL [MTW1] | 2.99 ± 0.12
12 | RVFNAKDTTGPKAISNF [YCS4] | 2.9 ± 0.1
13 | RVLITQRHIAVGKQIVN [RPS9A] | 2.22 ± 0.072
14 | RVNEMVQGMNDDIFIRY [ECM29] | 1.7 ± 0.095
15 | RVSLQDIKDFADKVYTK [QCR2] | 2.85 ± 0.069
16 | RYFWLDHNGVPFPQYPA [ITC1] | 2.22 ± 0.096
17 | RYPMNLLEFIIDEIAYL [ECM29] | 2.43 ± 0.097
18 | RYVYAHFPINVNIVEKD [RPL9A] | 2.04 ± 0.048
19 | SAENRDEKDYLTNQQPK [CSE2] | 2.76 ± 0.063
20 | SAESWGTGRAVARIPRV [RPL4A] | 3.06 ± 0.19
21 | SAFKFIHTQLSEIKQQI [YJL039C/NUP192] | 2.33 ± 0.1
22 | SAGNDKMVKAWNLNQFQ [ASC1] | 2.46 ± 0.044
23 | SAKGPEIIPLQDYYIIG [MED6] | 3.18 ± 0.098
24 | SAKTRSHNWAAKAKRRH [RPL37B] | 3.42 ± 0.093
25 | SALEQAIIYQRGKDGKL [YGL100W/SEH1] | 2.93 ± 0.073
26 | SAMPAPYMPYYYYYHPM [DSN1] | 2.4 ± 0.058

Row | Sequence | protein stability index
27 | SANTNNTCTISTSKFES [SWP82] | 2.59 ± 0.055
28 | SARGIETRPAQVILPMS [FAS2] | 3.06 ± 0.08
29 | SASFSLKNGDKPHLLKF [RPL6B] | 2.4 ± 0.16
30 | SASLHLNYGVYLNGTLI [RET1] | 2.65 ± 0.16
31 | SASTSATGISGSVSEET [ECM29] | 3.34 ± 0.047
32 | SCQIAQPYEDRPFEGLF [RRP45] | 3.33 ± 0.24
33 | SCSFFAKLSDTLIIDQV [NUT1] | 2.22 ± 0.052
34 | SDAMSIDEEDKDSESFS [YCG1] | 2.85 ± 0.15
35 | SDEEENNNNKSINKNNK [SSN2] | 2.94 ± 0.07
36 | SDEKKDGDASKPAFSFG [YJL041W/NSP1] | 3.24 ± 0.092
37 | SDELHNQSTIYEDEELS [LIN1] | 3 ± 0.079
38 | SDIESLEALMDILLCYQ [SRB8] | 2.84 ± 0.13
39 | SDIKQGYTQHGGLRPFG [PRE9] | 3.5 ± 0.13
40 | SDINQNDDSSSMNATMR [YDL088C/ASM4] | 2.88 ± 0.09
41 | SDLKGKLSSAENANADL [YIL149C/MLP2] | 3.37 ± 0.15
42 | SDLNLTDRQKKLLGVDM [YLR018C/POM34] | 3.17 ± 0.052
43 | SDMENDNLLLNLEQINE [REC8] | 2.76 ± 0.056
44 | SDNSVSVRLQVTKILPH [IRR1] | 2.86 ± 0.15
45 | SDREMAALIASKVYYNL [RPN2] | 1.91 ± 0.06
46 | SDSETNHKSKDNNNGDD [SKP1] | 2.9 ± 0.054
47 | SDSIELLKQYPKDSSST [YJR042W/NUP85] | 2.62 ± 0.047
48 | SDSLDIAQGIDLVRDID [SRP72] | 3.29 ± 0.11
49 | SEAEQIDTSKNLENMSI [YCG1] | 3.3 ± 0.073
50 | SEAFPSLQSCSVAVHFQ [SMC4] | 1.77 ± 0.1
51 | SEEKIRDYSKEILGINL [SIR4] | 3.17 ± 0.14
